Measured values reported in article PMC13541614 (2026).

Target: H5N1 influenza hemagglutinin (HA) of A/Vietnam/1203/2004, native (wild type) (Influenza A virus A/Vietnam/1203/2004 …, biotin on the AviTag (expressed in the presence of BirA))
Assay: BLI

Row | Binder | Kd [nM]
1 | 13D4 (broadly neutralizing antibody targeting the head region of HA), IgG (antibody, V domains shown) VH: QVQLQQSGAELMKPGASVKISCKATGYTFSGHWIEWVKQRPGHGLEWIGEILPGSGNIHYNEKFKGKATFAADTSSNTAYMQLSSLTSEDSAVYYCARLGTTAVERDWYFDVWGAGTTVTVSL VL: DIVMTQSQKFMSASVGDRVSVTCKASQNVGTHLAWYQQKPGQSPKALIYSASYRYSGVPDRFTGSGSGTDFTLTISNVQSGDLADYFCQQYNNFPLTFGAGTKLEIK | 0.64
2 | CR6261 (broadly neutralizing antibody targeting the stem region of HA), IgG (antibody, V domains shown) VH: EVQLVESGAEVKKPGSSVKVSCKASGGPFRSYAISWVRQAPGQGPEWMGGIIPIFGTTKYAPKFQGRVTITADDFAGTVYMELSSLRSEDTAMYYCAKHMGYQVRETMDVWGKGTTVTVSS VL: QSVLTQPPSVSAAPGQKVTISCSGSSSNIGNDYVSWYQQLPGTAPKLLIYDNNKRPSGIPDRFSGSKSGTSATLGITGLQTGDEANYYCATWDRRPTAYVVFGGGTKLTVL | 0.46
